Several values for one entry are separate records, joined by “and”; a condition that tells them apart may be missing. Identical values can stand only once. Like-named read-outs stand apart in the source and are kept apart here.
Key:
[1] = target: T1, recombinant human CD147-Fc chimeric protein (glycosylated) (human, UniProt P35613-2 25-205, glycosylated as supplied (migrates at about 62 kDa)); assay: ELISA, CD147-Fc adsorbed at 1 ug/mL, anti-human Fab-peroxidase detection; apparent KD
T1 construct: Bought protein; also called CD147-Fc (glycosylated); R&D Systems cat. no; 927-EMN-050; Fc part of the bought chimera not given
T1 sequence (looked up): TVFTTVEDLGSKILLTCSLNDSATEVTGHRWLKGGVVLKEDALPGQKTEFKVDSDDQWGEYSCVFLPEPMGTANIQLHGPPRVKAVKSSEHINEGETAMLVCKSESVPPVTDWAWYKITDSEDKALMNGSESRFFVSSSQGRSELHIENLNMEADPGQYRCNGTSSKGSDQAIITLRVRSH
Procedure: (§1) After buffer exchange with PBS, the deglycosylated or glycosylated proteins were adsorbed onto ELISA plates at 1 μg/mL. […] Bound humanized antibody of the present disclosure was detected with anti-human Fab-peroxidase secondary antibody and the mouse 3A11 monoclonal antibody was detected with anti-mouse Fc-peroxidase secondary antibody, and Ultra TMB detection (Thermo Fisher Scientific).

[2] = target: T2, recombinant human CD147-Fc chimeric protein deglycosylated with Protein Deglycosylation Mix II (New England … (human, UniProt P35613-2 25-205, N- and simple O-linked carbohydrates removed enzymatically (NEB Protein Deglycosylation Mix II, about 16 hrs at 37 C))); assay: ELISA, deglycosylated CD147-Fc adsorbed at 1 ug/mL, anti-human Fab-peroxidase detection; apparent KD
T2 construct: Same bought protein as m9 after deglycosylation (migrates at 52 and 48 kDa); also called CD147-Fc (deglyc-NEB); Fc part of the bought chimera not given
T2 sequence (looked up): T1 sequence (looked up)
Procedure: (§2) In this example, recombinant human CD147-Fc chimeric protein (R&D Systems, cat. no. 927-EMN-050) was deglycosylated of N- and simple O-linked carbohydrates using the Protein Deglycosylation Mix II (˜16 hrs incubation at 37° C.; New England Biolabs, cat. no. P6044S) or the Enzymatic Protein Deglycosylation Kit (˜1.5 days+incubation at 37° C.; Sigma-Aldrich, cat. no. EDEGLY) in accordance with their respective protocols. […] Bovine fetuin, which includes both N- and O-linked carbohydrates, was used a control for the extent of deglycosylation.
as §1

[3] = target: T3, recombinant human CD147-Fc chimeric protein deglycosylated with Enzymatic Protein Deglycosylation Kit … (human, UniProt P35613-2 25-205, N- and simple O-linked carbohydrates removed enzymatically (Sigma-Aldrich EDEGLY kit, about 1.5 days at 37 C)); assay: as above
T3 construct: Same bought protein as m9 after deglycosylation (migrates at 52 and 48 kDa); also called CD147-Fc (deglyc-Sigma); Fc part of the bought chimera not given
T3 sequence (looked up): T1 sequence (looked up)
Procedure: as §2, §1

[4] = target: T4, human CD147 protein (adsorbed to ELISA plates) (human, UniProt P35613-2 22-205, limits assumed); assay: ELISA, human CD147 protein adsorbed to plate, anti-human Fab-peroxidase detection; apparent KD
T4 construct: also called human CD147 polypeptide; Basigin
T4 sequence (looked up): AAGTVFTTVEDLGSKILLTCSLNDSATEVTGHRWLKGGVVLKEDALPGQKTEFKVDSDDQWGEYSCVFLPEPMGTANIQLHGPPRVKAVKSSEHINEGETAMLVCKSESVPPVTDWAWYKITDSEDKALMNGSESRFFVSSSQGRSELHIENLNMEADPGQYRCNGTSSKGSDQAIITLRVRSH
Procedure: (§3) For the exemplary assay depicted in FIGS. 7A-7C, standard ELISA protocol was used, in which human CD147 protein was absorbed to ELISA plates and subsequently incubated with the indicated concentration of antibody of the present disclosure. Bound humanized activatable antibody of the present disclosure was detected with anti-human Fab-peroxidase secondary antibody and Ultra TMB detection (Thermo Fisher Scientific).

[5] = target: T4, human CD147 protein (adsorbed to ELISA …); assay: as above; remark: listed apart in the source
Procedure: as §3, with “Using a” for “For the exemplary assay depicted in FIGS. 7A-7C,”, “protocol,” for “protocol was used, in which”

[6] = target: T4, human CD147 protein (adsorbed to ELISA …); assay: as above; remark: listed apart in the source
Procedure: The antibodies of the present disclosure that were assayed in this exemplary study were hu 3A11 Lc1/hu 3A11 Hc1 (VL of SEQ ID NO: 5 and VH of SEQ ID NO: 1), hu 3A11 Lc2/hu 3A11 Hc2 (VL of SEQ ID NO: 6 and VH of SEQ ID NO: 2), hu 3A11 Lc4/hu 3A11 Hc2 (VL of SEQ ID NO: 8 and VH of SEQ ID NO: 2). Using a standard ELISA protocol, human CD147 protein was absorbed to ELISA plates and subsequently incubated with the indicated concentration of antibody of the present disclosure. Bound humanized antibody of the present disclosure was detected with anti-human Fab-peroxidase secondary antibody, and Ultra TMB detection (Thermo Fisher Scientific).

[7] = target: T4, human CD147 protein (adsorbed to ELISA …); assay: as above; remark: listed apart in the source
Procedure: The antibody of the present disclosure that was assayed in this exemplary study was hu 3A11 Lc1/Hc1 (VL of SEQ ID NO: 5 and VH of SEQ ID NO: 1). Mouse anti-human CD147 monoclonal antibody 3A11 (VL of SEQ ID NO: 8 and VH of SEQ ID NO: 4) was assayed as a reference. Using a standard ELISA protocol, human CD147 protein was absorbed to ELISA plates and subsequently incubated with the indicated concentration of antibody of the present disclosure. Bound humanized antibody of the present disclosure was detected with anti-human Fab-peroxidase secondary antibody and the mouse 3A11 monoclonal antibody was detected with anti-mouse Fc-peroxidase secondary antibody, and Ultra TMB detection (Thermo Fisher Scientific).

[8] = target: T5, cynomolgus monkey CD147 on the cynomolgus primary kidney epithelial cell line (cynomolgus monkey); assay: FACS on cynomolgus primary kidney epithelial cell line, Alexa Fluor 647 goat anti-human IgG detection
T5 construct: whole, on cells; also called cynomolgus CD147
Procedure: In this study, the binding of the humanized anti-human CD147 antibody of the present disclosure to the indicated cell lines were performed using a standard FACS labelling method. Briefly, cells were labeled with the indicated antibodies of the present disclosure: anti-human CD147 antibody (humanized anti-human CD147 hu3A11 antibody; VH of SEQ ID NO: 1, VL of SEQ ID NO: 5) at the indicated concentrations and subsequently detected with an Alexa Fluor 647 labeled goat anti-human IgG secondary antibody.

B1: humanized anti-human CD147 monoclonal antibody hu 3A11 Lc1/Hc1 (antibody, V domains shown)
VH: EVQLVESGGGLVQPGGSLRLSCAASGFTFSNYWMDWVRQAPGKGLEWVGEIRLKSYNYATHYAASVKGRFTISRDDSKNSVYLQMNSLKTEDTAVYYCTAAGTDYWGQGTLVTVSS
VL: DIQMTQSPSSLSASVGDRVTITCRASQSVRTDVGWYQQKPGKAPKLLIYYSSNRYTGVPSRFSGSGSGTDFTLTISSLQPEDFATYYCQQDYSSPYTFGQGTKLEIK
notes: Detected with anti-human Fab or anti-human IgG secondary antibodies; also called hu 3A11 (hu Lc1/hu Hc1); hu 3A11 (hu Hc1/Lc1)
How did the Kd [1] turn out when B1 was run?
Its Kd is 0.191 nM.

What about the Kd [2] of the same binder?
The Kd was 0.185 nM.

And the Kd [3]?
The Kd was 0.175 nM.

What about the Kd [4] of the same binder?
Its Kd is 0.45 nM and 0.59 nM.

What about the Kd [5] of the same binder?
Its Kd is 0.14 nM.

And the Kd [6]?
The Kd was 0.852 nM.

And the Kd [7]?
The Kd was 0.71 nM.

And the Kd [8]?
Its Kd is 1.3 nM.
